Where a chain is given by its changes, count along the chain named.
Experiments:
Experiment in all cases: SPR, antibody captured, C2 as analyte;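 further: biacore at 37 °C, anti-C2 mAbs held by immobilised goat anti-human IgG, C2 alanine or serine mutants injected, double-referenced sensorgrams fitted to a 1:1 kinetic or steady-state model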
human C2 V448A = target: T1, human C2 V448A (human, UniProt P06681 21-752)
T1 sequence: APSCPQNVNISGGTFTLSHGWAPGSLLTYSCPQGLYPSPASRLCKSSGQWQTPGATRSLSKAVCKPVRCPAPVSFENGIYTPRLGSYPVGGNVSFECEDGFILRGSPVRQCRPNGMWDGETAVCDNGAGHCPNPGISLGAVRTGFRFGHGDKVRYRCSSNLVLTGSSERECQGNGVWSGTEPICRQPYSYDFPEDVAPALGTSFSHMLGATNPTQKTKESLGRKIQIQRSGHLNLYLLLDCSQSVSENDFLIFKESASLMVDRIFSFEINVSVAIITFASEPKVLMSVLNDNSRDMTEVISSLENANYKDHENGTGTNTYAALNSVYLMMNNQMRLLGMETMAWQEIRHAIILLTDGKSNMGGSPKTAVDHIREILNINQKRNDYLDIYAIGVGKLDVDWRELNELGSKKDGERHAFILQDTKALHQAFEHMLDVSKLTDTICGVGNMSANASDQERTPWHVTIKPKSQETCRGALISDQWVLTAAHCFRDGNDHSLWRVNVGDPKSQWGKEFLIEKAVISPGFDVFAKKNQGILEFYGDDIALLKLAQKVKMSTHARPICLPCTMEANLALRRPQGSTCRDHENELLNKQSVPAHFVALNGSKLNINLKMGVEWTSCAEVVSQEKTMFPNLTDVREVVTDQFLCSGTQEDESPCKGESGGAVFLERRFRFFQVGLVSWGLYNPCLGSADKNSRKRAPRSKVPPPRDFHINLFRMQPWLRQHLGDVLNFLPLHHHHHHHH

human C2 G427A = target: T2, human C2 G427A (human, UniProt P06681 21-752)
T2 sequence: T1 sequence with G407A, A428V

human C2 Y328A = target: T3, human C2 Y328A (human, UniProt P06681 21-752)
T3 sequence: T1 sequence with Y308A, A428V

human C2 D269A = target: T4, human C2 D269A (human, UniProt P06681 21-752)
T4 sequence: T1 sequence with D249A, A428V

B1: RF16-242 (antibody, human IgG4 S228P, lambda, V domains shown)
VH: EVQLLQSGAEVKKPGESLKISCKGSGYSFTSYWIGWVRQMPGKGLEWMGIIYPGDSDTRYSPSFQGQVTISADKSISTAYLQWSSLKASDTAMYYCARRGHYGDYFDYWGQGTLVTVSS
VL: SYELTQPPSVSVSPGQTARITCSGDALPKKYAYWYHQKSGQAPVLVIYEDRRRPSEIPERFSGSSSGTMATLTITGAQVEDEGVYFCYSRDRAGNQRVFGGGTQLTVLG
notes: pH-dependent anti-C2 antibody from a phage display library
Kd (human C2 V448A): 5 nM | Kd (human C2 G427A): 4 nM | Kd (human C2 Y328A): 45.4 nM | Kd (human C2 D269A): 12.9 nM
